Source: patent US5633227A, “Secretory leukocyte protease inhibitor as an inhibitor of tryptase” (Miles, Inc., priority 1994, dated 1997)
Values joined by “and” are separate entries in the source; they are usually repeats but may differ in a detail not shown here. Equal values may be shown once. Read-outs that look alike come from different tables or passages of the source.

Columns and labels:
[1] = system: tryptase; assay: GPK-AMC assay for tryptase activity (Dixon plot); type: biochemical, human; details: Table V footnote
Protocol: Tryptase activity was measured according to the procedure of Schwartz, et al., J. Biol. Chem., 261, 7372-7379 (1986) , with minor modifications, using Gly-Pro-Lys-Aminomethylcoumarin (GPK-AMC) as a substrate. The reaction was performed in assay buffer (0.1M Tris, pH 8.0, 10 μg/ml heparin) at room temperature in a 96-well microtiter plate (Perkin-Elmer, Norwalk, Conn.). The amount of coumarin produced by tryptase was determined by measuring the fluorescence (ex=372 nm, em=432 nm) on a Perkin-Elmer LS-50B fluorimeter equipped with a plate reader. 50 μl of tryptase (final concentration of 333 pM) was mixed with either 50 μl of the sample to be tested or with assay buffer and incubated for 5 min. at room temperature. […] The fluorescence intensity was measured every 5 minutes. For samples that were being tested for modulators of tryptase activity, the % inhibition for each fraction was determined by:
Inhibitory activity against tryptase and bovine trypsin was measured using Gly-Pro-Lys-aminomethylcoumarin as a substrate. […] The amount of coumarin produced was determined by measuring the fluorescence (ex=370 nm, em=432 nm) on a Perkin-Elmer LS-50B fluorimeter. […] The reaction was started by the addition of the substrate GPK-AMC (20 or 40 μM final) and the increase in fluorescence was measured over a 2 minute period. […]

[2] = system: human mast cell tryptase; assay: VIP assay for tryptase activity (Dns-VIP hydrolysis, HPLC/fluorescence, Dixon plot); type: biochemical; details: rate of loss of full-length VIP (1-28), 0.2 and 0.8 μM VIP, 37° C., read-out: Ki for inhibition of tryptase degradation of full length Dns-VIP
Protocol: In a typical assay, mast cell tryptase (12.5 pM) was incubated at 37° C. with dansyl-VIP (0.2-2 μM) in 100 mM Tris-HCl (pH 8.0) containing 1 μg/ml porcine mucosal heparin and 0.02% Triton X-100 in a final volume of 2.0 ml. To some samples, secretory leukocyte protease inhibitor was added to a final concentration of between 0 and 107 nM. The tryptase was pre-incubated with the SLPI, if added, for 5 min. at 37° C. before initiating the reaction by the addition of Dns-VIP. Aliquots (250 μl) were removed at 0, 2.5, 5.0, 7.5, 10, and 20 minutes to micro-vials (Sunbrokers) and the reaction terminated by the addition of TFA to a final concentration of 3% (v/v). The acidified reaction mixture was subjected to chromatography on a C-18 reverse-phase column (Vydac, 5 micron, 0.46×25 cm). Peptide hydrolysis was monitored by HPLC using a Hewlett Packard HP1090 unit complete with binary solvent delivery and autoinjection capability. Fluorescent detection (postcolumn) was performed with an inline Gilson Model 121 filter fluorimeter (excitation at 310-410 nm, emission at 480-520 nm). Dns-VIP fragments were separated from any unconverted Dns-VIP using a linear gradient of 69:31 (v/v) to 50:50 (v/v) C:D over 5.5 minutes (C=100 mM sodium acetate, pH 6.5 plus 0.2% sodium azide, D=80% ACN in water), with return to 69:31 (v/v) C:D at 6.5 minutes. Chromatography was performed at 1.0 ml/min at 25° C. […]

Response in GPK-AMC tryptase assay [1]: biphasic response
B1: secretory leukocyte protease inhibitor (protein)
chain: SGKSFKAGVCPPKKSAQCLRYKKPECQSDWQCPGKKRCCPDTCGIKCLDPVDTPNPTRRKPGKCPVTYGQCLMLNPPNFCEMDGQCKRDLKCCMGMCGKSCVSPVKA
Ki ([2]; listed as Full SLPI): 8 nM
Ki [2]: 8 nM and ~8 nM
